± gives the uncertainty stated by the source.
Experiment: protein stability index of a GFP-peptide fusion (yeast GPS) (PSI 1-4); higher = more stable; sorted into four equal gates, so the index is relative within each strain
Method in brief: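 Sequencing reads from sorted gates were used to score each peptide. The library consisted of tiled 17-residue yeast protein peptides fused downstream of GFP on a Cherry-expressing plasmid, pooled and carried in yeast. Mid-log cultures in leucine-free medium were split into four equal gates by GFP/Cherry ratio, and each gate's plasmids were PCR-amplified and Illumina-sequenced. The protein stability index adds up, over all gates, the read frequency multiplied by the gate number.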

Sequence	protein stability index (doa10∆)	protein stability index (pdr5∆)	protein stability index (san1∆)	protein stability index (ubr1∆)
DSFKYEPLAPGNDNLIK [YLR335W/NUP2]	2.61 ± 0.061	2.75 ± 0.045	2.63 ± 0.045	2.85 ± 0.044
DHGDGILLIDSEIARTY [RPN9]	2.73 ± 0.22	3.03 ± 0.3	3.29 ± 0.17	3.17 ± 0.24
SDFTFPEYYSTARVMGG [DIS3]	1.57 ± 0.073	1.39 ± 0.084		1.38 ± 0.13
QLDGFSSDDRVKVLAAT [RPT5]	2.88 ± 0.16	2.83 ± 0.096		1.58 ± 0.12
GAAGAWMMNGALQILNS [FAS2]	1.48 ± 0.046	1.65 ± 0.064	2.08 ± 0.12	1.68 ± 0.057
FKLPKKFPPPTPLLENI [BRR2]	2.44 ± 0.062	2.72 ± 0.067	2.31 ± 0.061	2.71 ± 0.048
GGHSLEEISFSLSEGCD [PRP28]	2.17 ± 0.11	2.42 ± 0.067	1.93 ± 0.13	2.25 ± 0.094
RRVNQAIALLTIGAREA [RPS5]	3.21 ± 0.21	2.72 ± 0.21	2.6 ± 0.24	3.36 ± 0.22
KLGIESKQPNSAIRKCV [RPS23A]	3.21 ± 0.11	3.25 ± 0.12	3.02 ± 0.12	3.41 ± 0.054
VGLRSNTHAVLVALKRN [PRE5]	1.2 ± 0.037	1.45 ± 0.039	1.15 ± 0.093	1.21 ± 0.033
FGPKKENRKKDESDSEN [YLR335W/NUP2]	3.04 ± 0.14	3.19 ± 0.086	2.62 ± 0.079	3.42 ± 0.091
SASVRALIENWAADSVS [FAS1]	2.46 ± 0.078	2.48 ± 0.094	2.59 ± 0.097	2.76 ± 0.091
VRVQRQKKILSIRLKVP [RPL8A]	1.49 ± 0.032	1.28 ± 0.032	1.26 ± 0.054	1.25 ± 0.025
EQELAHILLTELLAYQF [FAS2]	2.547 ± 0.023	2.807 ± 0.025	2.67 ± 0.023	2.633 ± 0.019
INSSNEALVQAFAFCIP [YCG1]	2.18 ± 0.055	2.31 ± 0.051	2.49 ± 0.059	2.09 ± 0.041
LASKIKQYERLRFYKDT [RRI1]	2.63 ± 0.068	2.52 ± 0.062	1.97 ± 0.077	2.19 ± 0.08
SQFCYVSDDESNGEVLE [RPN14]	3.41 ± 0.22			3.09 ± 0.1
LDPLTKDPVDFVRQAAM [RPN2]	3.39 ± 0.12	3.53 ± 0.14	3.17 ± 0.2	2.85 ± 0.25
LERVKANAAKRAEAKAQ [RPL21A]	3.14 ± 0.097	3.25 ± 0.12	3.36 ± 0.061	3.14 ± 0.11
NVDKNLNEIKEHKIVVL [RPN14]	2.39 ± 0.085	2.38 ± 0.069	2.42 ± 0.1	2.74 ± 0.1

Sequence	protein stability index (doa10∆)	protein stability index (pdr5∆)	protein stability index (san1∆)	protein stability index (ubr1∆)
LEDPYKYHYKEEWLNTK [CSN9]	2.88 ± 0.084	3.2 ± 0.083	2.83 ± 0.065	3.09 ± 0.072
KLKNNASRSQLEKGEIE [YJL039C/NUP192]	3.18 ± 0.11	2.98 ± 0.1	2.66 ± 0.083	3.08 ± 0.087
ATGISGSVSEETELFEP [ECM29]	3.22 ± 0.083	3.16 ± 0.054	3 ± 0.08	3.04 ± 0.067
VVIDAFRLIDTGALINN [RPN11]	1.27 ± 0.16	1.78 ± 0.17		1.11 ± 0.098
GFEQVKIALGSPIVNVL [RRI2]	1.56 ± 0.15	2.78 ± 0.2	1.48 ± 0.25	2.52 ± 0.12
QQQIIKIRITLTSTKVK [RPS20]	1.91 ± 0.056	1.84 ± 0.048	1.59 ± 0.1	2.71 ± 0.043
KEIRAFDKLLNIPRREL [SRB4]	2.6 ± 0.08	2.46 ± 0.07	2.73 ± 0.08	1.95 ± 0.071
LDDLQVILAKNENETRD [PGD1]	3.27 ± 0.099	3.05 ± 0.08	2.93 ± 0.14	3.38 ± 0.078
TTSRFSKQVTDYYQSIY [FAS2]	2.77 ± 0.056	2.87 ± 0.071	2.47 ± 0.089	2.59 ± 0.05
IETLDPALIRPGRIDRK [RPT2]	2.53 ± 0.26	3.18 ± 0.19	2.88 ± 0.24	3.02 ± 0.2
NVFNDTPRGNHWMGSSV [YMR129W/POM152]	3.39 ± 0.11	3.46 ± 0.099	2.98 ± 0.075	3.12 ± 0.081
LRRLEILVPDLYHLVIM [ECM29]	1.59 ± 0.054	1.54 ± 0.036	1.46 ± 0.065	1.61 ± 0.032
KDFLKAVDKVISGYKKF [RPT1]	3.21 ± 0.074	3.38 ± 0.09	3.12 ± 0.092	3.33 ± 0.051
ERHGYIRGIVKQIVHDS [RPL2A]	1.6 ± 0.051	1.84 ± 0.072	1.92 ± 0.062	1.79 ± 0.05
DVPAYNVTSFMPFWKFF [SRB8]	1.62 ± 0.037	1.68 ± 0.04	1.5 ± 0.06	1.56 ± 0.031
NIVDSSAAGNKAIPTFS [YIL149C/MLP2]	2.31 ± 0.066	2.44 ± 0.077	3 ± 0.057	2.44 ± 0.059
EKLAVSALEQAIIYQRG [YGL100W/SEH1]	2.04 ± 0.097	2.38 ± 0.11	2.11 ± 0.096	2.4 ± 0.12
KKIAQRERRAALTDFER [RPL14A]	3.09 ± 0.3	3.46 ± 0.19		
MSLVVQEQGSFQHILRL [RPS18A]	2.95 ± 0.14	2.83 ± 0.12	2.65 ± 0.1	2.92 ± 0.1

Source: the supplement of paper PMC9732359
